Assay [1] has as its target T1, myc-tagged mouse CREME9 (mouse, UniProt Q9Z2L7 1-442).
T1 construct: whole, on cells; Methods say mouse CREME9; Co-expressed with human gp130 in F11 cells; also called CRL4; pEF-mycHis CREME9; not shown: myc-His tag
T1 sequence (looked up): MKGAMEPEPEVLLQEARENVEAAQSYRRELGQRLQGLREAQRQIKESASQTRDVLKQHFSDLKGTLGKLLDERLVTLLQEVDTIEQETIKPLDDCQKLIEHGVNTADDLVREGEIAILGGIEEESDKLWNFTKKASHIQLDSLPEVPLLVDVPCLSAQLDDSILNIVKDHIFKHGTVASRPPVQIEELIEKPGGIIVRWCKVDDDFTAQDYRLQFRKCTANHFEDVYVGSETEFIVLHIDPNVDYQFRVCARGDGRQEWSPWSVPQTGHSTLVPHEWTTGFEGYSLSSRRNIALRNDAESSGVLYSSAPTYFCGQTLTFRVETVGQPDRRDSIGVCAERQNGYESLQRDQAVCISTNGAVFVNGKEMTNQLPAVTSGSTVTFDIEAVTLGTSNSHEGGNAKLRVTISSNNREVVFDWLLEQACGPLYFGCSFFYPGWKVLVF
The experiment in a line: immunofluorescence-based HN binding assay (1) on F11 cells overexpressing CREME9 and human gp130. The method, then: B) F11 cells were transfected with 0.5 µg of pEF-myc His human CREME9 or pEF-mycHis human WSX-1 in association with 0.5 µg of pCAG-human gp130. […] Fluorescence signals were detected with a laser-scanning, confocal microscope LSM (Carl Zeiss, Germany) (right panels).
(§1) F11 cells (7×10^4/well in 6-well plates) were replated into 96-well plates (7×10^3 cells/well) at 24 hrs after transfection with indicated amounts of the plasmids encoding mycHis-WSX or V5-CNTF-R, and with PCAG-human gp130 if required. […] After 6 hrs incubation, they were fixed with 4% paraformaldehyde in PBS for 30 min. After washing with PBS, cells were stained with FITC-conjugated avidin (Molecularprobe, Eugene, Oreg., USA). Immunofluorescence intensity was measured (excitation=485 nm, emission=535 nm) with a spectrofluorometer (Wallac1420 ARVOsx Multi Label Counter). Immunohistochemical analysis was done with a laser-scanning, confocal microscope LSM (Carl Zeiss, Germany).

Assay [2] has as its target T2, rat IL-6R (rat, UniProt P22273 20-462).
T2 construct: Overexpressed in F11 cells; stood in the cell lysate in the pull-down assay; also called IL-6 receptor; rat IL-6R (V6 tagged); not shown: printed as 'V6 tagged'
T2 sequence (looked up): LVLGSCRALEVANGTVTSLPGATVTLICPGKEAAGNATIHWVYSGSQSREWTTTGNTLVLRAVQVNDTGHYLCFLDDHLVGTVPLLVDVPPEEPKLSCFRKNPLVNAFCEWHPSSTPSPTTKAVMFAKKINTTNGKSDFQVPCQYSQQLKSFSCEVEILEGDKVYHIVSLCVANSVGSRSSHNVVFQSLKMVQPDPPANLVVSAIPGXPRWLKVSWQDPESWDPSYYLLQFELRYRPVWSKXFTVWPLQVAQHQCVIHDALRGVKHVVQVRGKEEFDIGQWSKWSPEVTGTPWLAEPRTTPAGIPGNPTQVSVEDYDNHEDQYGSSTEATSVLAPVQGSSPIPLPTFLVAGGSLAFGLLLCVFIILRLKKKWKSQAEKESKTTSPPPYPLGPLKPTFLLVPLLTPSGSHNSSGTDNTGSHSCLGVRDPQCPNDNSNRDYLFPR
The experiment in a line: pull-down with HN-Sepharose 4B from lysates of transfected F11 cells, immunoblot. The method, then: (§2) WSX-1, CNTF-R, and IL-6 were over-expressed in F11 cells and the pull down assay was made using the above 4B bead.
(§3) F11 cells (7×10^4/well in 6-well plates) were transfected with the plasmids encoding mycHis-WSX-1, V5-CNTF-R or rat IL-6R (V6 tagged). […] The beads were then reacted with a blocking buffer (0.2M glycine, pH 8.0) for 2 hrs at a room temperature, washed with the coupling buffer and stored at 4° C. for use in pull-down assay. For each pull-down assay, 20 μl of 1:1 slurry of Sepharose was used for 100 μl of the cell lysate.
On the technique in general: A western blot detects proteins with antibodies after separation by electrophoresis.

Assay [3] has as its target T3, Humanin receptor (HNR) overexpressed in F11 cells: human CNTF-R/WSX-1/gp130 (human, UniProt P26992 23-342; Q6UWB1 33-636; P40189 23-918).
T3 construct: whole, on cells; The three human subunits co-transfected into F11 cells, which also carry the endogenous receptor; also called both the CNTF receptor and WSX-1; not shown: C-terminal V5 tag; C-terminal myc-His tag
The experiment in a line: cold competitor in binding assay (2), F11 cells transfected with human CNTF-R/WSX-1/gp130. The method, then:
A) F11 cells were seeded on 96-well plates coated with poly-L-lysine (7 ×10^3 cells/well). […] On the other hand, F11 cells were transfected with 0.5 μg of pcDNA3.1/GS-human CNTF-R, pEF1/MycHis-human WSX-1, and 1.0 μg of pCAG-human gp130. At 24 hrs after the transfection, the cells were re-seeded on 96-well plates coated with poly-L-lysine (7 ×10^3 cells/well).
as §1

The target in assay [4] is T2, rat IL-6R. The experiment in a line: pull-down with HNA-Sepharose 4B from lysates of transfected F11 cells, immunoblot. The method, then:
as §2, §3

In assay [5] the target is T4, C-terminally myc-tagged human WSX-1 (mycHis-WSX-1) (human, UniProt Q6UWB1 33-636).
T4 construct: whole, on cells; in the pull-down and co-immunoprecipitation it stood in cell lysates; also called myc-WSX-1; IL-27 receptor; not shown: C-terminal myc-His tag of the pEF-mycHis vector
T4 sequence (looked up): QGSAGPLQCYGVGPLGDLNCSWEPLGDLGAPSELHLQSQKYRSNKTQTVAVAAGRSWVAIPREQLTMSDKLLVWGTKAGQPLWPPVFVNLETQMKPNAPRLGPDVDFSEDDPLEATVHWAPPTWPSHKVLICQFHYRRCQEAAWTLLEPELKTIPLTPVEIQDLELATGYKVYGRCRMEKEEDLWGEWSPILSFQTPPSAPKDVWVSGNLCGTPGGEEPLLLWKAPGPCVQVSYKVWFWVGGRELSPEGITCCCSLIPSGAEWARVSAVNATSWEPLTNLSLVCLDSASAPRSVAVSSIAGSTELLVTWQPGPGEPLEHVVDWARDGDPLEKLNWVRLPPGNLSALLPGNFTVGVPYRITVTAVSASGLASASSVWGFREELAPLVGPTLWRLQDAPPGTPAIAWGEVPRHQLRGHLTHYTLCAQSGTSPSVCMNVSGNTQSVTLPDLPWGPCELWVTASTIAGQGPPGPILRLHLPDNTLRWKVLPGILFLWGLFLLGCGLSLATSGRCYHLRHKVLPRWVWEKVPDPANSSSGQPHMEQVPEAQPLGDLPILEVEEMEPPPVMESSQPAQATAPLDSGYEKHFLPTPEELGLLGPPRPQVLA
Described as above. The method, then: as §2, §3

The target of assay [6] is T5, C-terminally V5-tagged human CNTF-R (V5-CNTF-R) (human, UniProt P26992 23-342).
T5 construct: whole, on cells; in the pull-down and co-immunoprecipitation it stood in cell lysates; also called human CNTF receptor; CNTF receptor alpha chain; not shown: C-terminal V5 tag
T5 sequence (looked up): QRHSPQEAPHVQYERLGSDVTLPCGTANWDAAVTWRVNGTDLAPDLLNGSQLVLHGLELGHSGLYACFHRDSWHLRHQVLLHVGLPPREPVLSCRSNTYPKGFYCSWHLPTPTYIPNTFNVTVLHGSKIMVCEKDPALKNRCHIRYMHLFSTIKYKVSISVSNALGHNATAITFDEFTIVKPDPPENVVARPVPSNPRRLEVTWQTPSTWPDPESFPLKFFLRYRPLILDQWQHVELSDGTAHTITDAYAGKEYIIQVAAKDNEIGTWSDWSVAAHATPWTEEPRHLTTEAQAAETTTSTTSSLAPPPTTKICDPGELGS
The description is as above. The method, then:
as §2, §3

Ends that are not written are not given here.

The source of these data is patent US8173771B2, “Humanin receptor or humanin-like polypeptide receptor” (Keio Univeristy, priority 2005, dated 2012).

T3 sequence (P40189 23-918, one chain of several): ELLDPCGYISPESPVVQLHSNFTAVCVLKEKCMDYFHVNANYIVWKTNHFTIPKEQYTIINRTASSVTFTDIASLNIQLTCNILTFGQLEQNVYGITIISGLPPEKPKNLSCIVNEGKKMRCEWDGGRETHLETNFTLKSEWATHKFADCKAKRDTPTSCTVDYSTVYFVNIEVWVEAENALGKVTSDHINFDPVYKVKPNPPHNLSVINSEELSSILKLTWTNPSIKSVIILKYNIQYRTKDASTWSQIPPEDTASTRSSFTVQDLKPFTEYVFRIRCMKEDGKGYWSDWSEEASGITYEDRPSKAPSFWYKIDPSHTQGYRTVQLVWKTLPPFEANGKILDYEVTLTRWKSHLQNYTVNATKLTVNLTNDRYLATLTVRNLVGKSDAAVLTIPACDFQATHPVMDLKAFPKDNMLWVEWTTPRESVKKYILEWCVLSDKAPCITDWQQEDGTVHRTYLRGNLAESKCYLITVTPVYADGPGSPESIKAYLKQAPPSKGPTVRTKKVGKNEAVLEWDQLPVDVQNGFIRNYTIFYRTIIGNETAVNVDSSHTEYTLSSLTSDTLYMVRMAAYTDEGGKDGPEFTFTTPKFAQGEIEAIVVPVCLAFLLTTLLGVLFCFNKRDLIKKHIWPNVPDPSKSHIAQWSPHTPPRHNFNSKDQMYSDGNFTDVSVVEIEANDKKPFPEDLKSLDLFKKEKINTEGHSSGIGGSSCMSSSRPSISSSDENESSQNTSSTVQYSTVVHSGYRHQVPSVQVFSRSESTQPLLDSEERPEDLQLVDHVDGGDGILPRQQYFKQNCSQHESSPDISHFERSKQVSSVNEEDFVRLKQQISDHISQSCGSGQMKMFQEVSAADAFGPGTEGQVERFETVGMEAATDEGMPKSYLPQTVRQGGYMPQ

B1: biotin-labeled HNG-FLAG (peptide)
peptide: MAPRGFSCLLLLTGEIDLPVKRRA
modifications: also: biotin label, position not given here, FLAG tag, sequence and position not given here
notes: the identity is therefore uncertain; not shown: FLAG tag
Take B1: the binding result in assay [1] is given as “no binding (tested: 100 nM)”.

B2: Humanin (HN) (peptide)
peptide: MAPRGFSCLLLLTSEIDLPVKRRA
notes: Synthetic 24-residue peptide; elsewhere it was used free and unlabeled; also called synthetic Humanin
As to B2, the binding result is on record as “no binding” in assay [2] and “binds” in assay [3].

B3: C8A-Humanin (HNA) (peptide)
peptide: MAPRGFSALLLLTSEIDLPVKRRA
notes: Synthetic peptide, HN mutant with null activity used as negative control; also called C8A-HN
With B3, the binding result in assay [4], in assay [5] and in assay [6] was “no binding” each time.
